Test results from paper PMC12822413, “TSHR‐Targeting Nucleic Acid Aptamer Treats Graves' Ophthalmopathy via Novel Allosteric Inhibition” (Advanced Science, 2025).

Target: T1, thyrotropin receptor (TSHR), wild type, on HEK293T cells stably expressing it (TSHR-293T) (human, UniProt P16473-1)
T1 construct: human thyrotropin receptor, cDNA from GeneCopoeia (NM_000369.4) cloned into pLVX-Puro; also called TSHR-293T cells; source: HEK293T, lentiviral transduction (pLVX-Puro), puromycin selected, on cells
Assay: flow cytometry on cells; competitive binding assay of M22 and the DNA aptamer YC3 on TSHR-293T cells; each in excess against the other
Details: one partner purified

B1: Human monoclonal autoantibody to the TSHR (M22) (antibody, V domains shown)
VH: QVQLVQSGAEVKKPGESLKISCRGSGYRFTSYWINWVRQLPGKGLEWMGRIDPTDSYTNYSPSFKGHVTVSADKSINTAYLQWSSLKASDTGMYYCARLEPGYSSTWSVNWGQGTLVTVS
VL: LTVLTQPPSVSGAPRQRVTISCSGNSSNIGNNAVNWYQQLPGKAPKLLIYYDDQLPSGVSDRFSGSRSGTSASLAIRGLQSEDEADYYCTSWDDSLDSQLFGGGTRLTVL
notes: also called human TSAb; source: bought: RSR (Cardiff, UK)
B1: binds.
